# Measurements reported in patent US20090226429A1 (Human Genome Sciences, published 2009).
# Residue numbers refer to the chain shown, from its start.
# T1: TR5 (human, UniProt O14798 30-242)
# T1 construct: Antigen coated in the specificity phage ELISA; also called TRAIL-R3; DcR1
# T1 chain: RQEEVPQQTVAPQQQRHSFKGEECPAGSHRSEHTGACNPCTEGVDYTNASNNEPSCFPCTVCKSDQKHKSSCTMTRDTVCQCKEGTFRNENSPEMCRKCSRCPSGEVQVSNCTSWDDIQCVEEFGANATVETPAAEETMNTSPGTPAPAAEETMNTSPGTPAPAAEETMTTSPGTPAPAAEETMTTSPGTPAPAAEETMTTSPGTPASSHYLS
# T2: TR10 (human, UniProt Q9UBN6 56-204, limits assumed)
# T2 construct: Antigen coated in the specificity phage ELISA; also called TRAIL-R4; DcR2
# T2 sequence: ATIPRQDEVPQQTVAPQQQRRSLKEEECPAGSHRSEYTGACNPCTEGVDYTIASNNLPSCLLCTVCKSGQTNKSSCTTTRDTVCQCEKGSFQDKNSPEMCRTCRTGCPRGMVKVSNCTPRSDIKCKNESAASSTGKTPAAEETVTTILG
# T3: TR4:Fc receptor (human, UniProt O00220 109-240)
# T3 construct: also called TR4-Fc fusion protein; not shown: Fc region
# T3 chain: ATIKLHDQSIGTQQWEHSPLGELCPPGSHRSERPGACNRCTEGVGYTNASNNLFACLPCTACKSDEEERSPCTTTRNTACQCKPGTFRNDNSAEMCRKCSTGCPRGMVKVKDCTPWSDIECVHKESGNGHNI
# B1: scFv T1014G03 (scFv)
# scFv: EVQLVQSGAEVKMPGASVKLSCRVSGDTFTAYFIHWVRQAPGQGLEWMGWFNPISGTAGSAEKFRGRVAMTRDTSISTAYMELNRLTFDDTAVYYCARQHRGNTFDPWGQGTLVTVSSGGGGSGGGGSGGGGSAQSALTQPASVSGSPGQSITISCTGTSSDIGAYKYVSWYQQHPGKAPKLVIYEVSNRPSGVSSRFSGSKSGQTASLTISGLQADDEADYYCNSYQGYNTWVFGGGTKVTVLG
# B2: scFv T1014A04 (scFv)
# scFv: EVQLVQSGADVKRPGASVKVSCKISGDSFNAYFIHWVRQAPGQGLEWMGWFNPDSGTADSAQKFHGRVTMTRDTSSSTAFLELSRLRSDDTAVYYCVRQHRGNTFAPWGRGTMVTVSSGGGGSGGGGSGGGGSAQSVLTQPPSASGSPGQSVTISCTGTTSDVGGYNYVSWYQQHPGKAPKLMIYGVNQRPSGVPDRFSGSKSGNTASLTVSGLQAEDEADYYCSSYAGSNNWVFGGGTKLTVLG
# B3: scFv T1014F08 (scFv)
# scFv: EVQLVQSGAEVKKPGASVKLSCRVSGDTFTAYFIHWVRQAPGQGPEWMGWFNPISGTAGSAARFRGRVAMTRDTSISTAYMELNRLTFDDTAVYYCARQHRGNTFDPWGKGTLVTVSSGGGGSGGGGSGGGGSALPVLTQPPSASGSPGQSVTISCTGTSSDVGGYKYVSWYQQHPGKAPKLMIYEVSMRPSGVPDRFSGSKSGNTASLTVSGLQAEDEADYYCASYAGSNNWVFGGGTKLTVLG
# B4: scFv T1014G04 (scFv)
# scFv: EVQLVQSGADVKRPGASVKVSCKISGDSFTAYFIHWVRQAPGQGLEWMGWFNPDSGTADSAQKFHGRVTMTRDTSSSTAFLELSRLRSDDTAVYYCVRQHRGNTFAPWGRGTLVTVSSGGGGSGGGGSGGGGSAQPVLTQPPSASGSPGQSVTISCTGTSSDVGSYEYVSWYQQHPGKAPRLMISEVNKRPSGVPNRFSGSKSGNTASLTVSGLQADDEADYYCSSYAGSNNWVFGGGTKVTVLG
# B5: scFv T1014B11 (scFv)
# scFv: EVQLVQSGAEVKKPGASVKVSCKISGDSFTAYFIHWLRQAPGEGLEWMGWFNPISGTAGSPQKFHGRVAMTRDTSISTAYMELTRLASDDTAIYYCARQHHSNTFDPWGQGTLVTVSSGGGGSGGGGSGGGGSAQSALTQPASVSGSPGQSITISCTGTNSDVGGYNYVSWYQQHPGKAPKLMIYEVNNRPSGVSNRFSGSKSGNTASLTISGLQADDEADYYCSSYTTSNTWVFGGGTKLTVLG
# B6: IgG1 antibody comprising the VH and VL domains of the T1014A04 scFv (antibody, V domains shown)
# VH: EVQLVQSGADVKRPGASVKVSCKISGDSFNAYFIHWVRQAPGQGLEWMGWFNPDSGTADSAQKFHGRVTMTRDTSSSTAFLELSRLRSDDTAVYYCVRQHRGNTFAPWGRGTMVTVSS
# VL: QSVLTQPPSASGSPGQSVTISCTGTTSDVGGYNYVSWYQQHPGKAPKLMIYGVNQRPSGVPDRFSGSKSGNTASLTVSGLQAEDEADYYCSSYAGSNNWVFGGGTKLTVLG
# notes: Whole IgG1; also called IgG1 format of T1014A04
# B7: IgG1 antibody comprising the VH and VL domains of the T1014G04 scFv (antibody, V domains shown)
# VH: B6 VH with N30T, M113L
# VL: QPVLTQPPSASGSPGQSVTISCTGTSSDVGSYEYVSWYQQHPGKAPRLMISEVNKRPSGVPNRFSGSKSGNTASLTVSGLQADDEADYYCSSYAGSNNWVFGGGTKVTVLG
# notes: Whole IgG1; also called T14G04
# B8: IgG1 antibody comprising the VH and VL domains of the T1014G03 scFv (antibody, V domains shown)
# VH: EVQLVQSGAEVKMPGASVKLSCRVSGDTFTAYFIHWVRQAPGQGLEWMGWFNPISGTAGSAEKFRGRVAMTRDTSISTAYMELNRLTFDDTAVYYCARQHRGNTFDPWGQGTLVTVSS
# VL: QSALTQPASVSGSPGQSITISCTGTSSDIGAYKYVSWYQQHPGKAPKLVIYEVSNRPSGVSSRFSGSKSGQTASLTISGLQADDEADYYCNSYQGYNTWVFGGGTKVTVLG
# notes: Whole IgG1
# Target: T4, TR7 (human, UniProt O14763 52-184, limits assumed)
# T4 construct: Antigen coated in the specificity phage ELISA; also called TRAIL-R2; DR5
# Assay: specificity phage ELISA, antigen coated at 1 ug/ml
# Description: (§1) Flexible 96-well plates (Falcon) were coated overnight at 4° C. with each antigen (1 μg/ml). All antigens were coated in PBS. After coating, the solutions were removed from the wells, and the plates were blocked for 1 hour at room temperature in MPBS. The plates were washed 3 times with PBS and then 50 μl of pre-blocked phage was added to each well. The plates were incubated at room temperature for 1 hour and then washed with 3 changes of PBST followed by 3 changes of PBS.
# (§2) To each well, 50 μl of an anti-M13-HRP conjugate (Pharmacia) at a 1 in 5000 dilution in MPBS was added and the plates incubated at room temperature for 1 hour. Each plate was washed three times with PBST followed by three times with PBS.
# (§3) Fifty μl of TMB substrate was then added to each well, and incubated at room temperature for 30 minutes or until colour development. The reaction was stopped by the addition of 25 μl of 0.5 M H₂SO₄. The signal generated was measured by reading the absorbance at 450 nm (A₄₅₀) using a microtitre plate reader (Bio-Rad 3550).
row,binding result,Binder
1,no binding,B1
2,no binding,B2
3,no binding,B3
4,no binding,B4
5,no binding,B5

# Target: T1, TR5
# Assay: specificity phage ELISA, antigen coated at 1 ug/ml
# Description: as §1, §2, §3
row,binding result,Binder
1,no binding,B1
2,no binding,B2
3,no binding,B3
4,no binding,B4
5,no binding,B5

# Target: T2, TR10
# Assay: specificity phage ELISA, antigen coated at 1 ug/ml
# Description: as §1, §2, §3
row,binding result,Binder
1,no binding,B1
2,no binding,B2
3,no binding,B3
4,no binding,B4
5,no binding,B5

# Target: T5, BLyS (human, UniProt Q9Y275 134-285, limits assumed)
# T5 construct: Unrelated control antigen in the specificity phage ELISA
# Assay: specificity phage ELISA, antigen coated at 1 ug/ml
# Description: as §1, §2, §3
row,binding result,Binder
1,no binding,B1
2,no binding,B2
3,no binding,B3
4,no binding,B4
5,no binding,B5

# Target: T3, TR4:Fc receptor
# Assay: SPR (BIAcore 2000), TR4:Fc amine-coupled on CM5 chip, IgG1 as analyte, double reference subtraction, 1:1 Langmuir fit, 25 C
# Description: The optimal pH for this coupling was analyzed using preconcentration experiments ranging from pH 4-7 and was determined to be pH 4.0 for both the TR4 and the TR2 receptor. Amine coupling was used to covalently bind each receptor (fc) to the dextran matrix on the CM5 sensor chip. The immobilization experiment was performed using the manual injection mode. The entire immobilization experiment was performed at 5 μL/min. A 3-minute injection of EDC/NHS (1:1) was applied to each flow cell to active esters. A target level of ˜200RU was set as the goal for all each flow cell. Fc-fusion receptors, TR4 and TR2 at 5 μg/mL, were immobilized onto individual flow cells of a sensor chip. The amount applied varied from 8-14 μL. A 3-minute ethanolamine injection completed the immobilization experiment by inactivating the esters.
# The kinetics cycles were performed as follows: The flow rate for the entire cycle was 25 μL/minute with the flow path including both the control (TR2) and experimental (TR4) flow cell at all times. A 1-minute buffer injection was applied to stabilize the baseline. The purified antibody (IgG1 antibody comprising the VH and VL domains of each of the T1014A04, T1014G03, T1014F08, and T14G04 scFvs) was diluted from 10 μg/mL (65 nM) to 0.115 μg/mL (0.75 nM) in running buffer and tested in duplicate. Each concentration was in contact with the control (TR2) and the experimental (TR4) flow cell during a 4-minute association and a 10-minute dissociation phase. Regeneration was performed using 25 mM NaOH from 5-12 μL depending on the sample concentration.
# A double-reference subtraction was performed, which refers to the control flow cell subtraction for every cycle, in addition to a buffer cycle subtraction. The 1:1 Langmuir model was used for all evaluation fitting.
row,Kd,Binder
1,0.468 nM,B6
2,0.194 nM,B7
3,0.554 nM,B8
